# Data published in PMC8595650, “Structure of the bacterial flagellar hook cap provides insights into a hook assembly mechanism” (Communications Biology, 2021).
# Values joined by “and” are separate entries in the source; they are usually repeats but may differ in a detail not shown here. Identical values can stand only once.
# Biological target: the molecule itself
# Assay: cross-linking; purified FlgD with EDC and Sulfo-NHS (molar ratio 1 : 2000) or DTSSP (1 : 50), products on SDS-PAGE
protein,measurement,value
"S. enterica FlgD (flagellar hook cap protein, 232 amino acid residues) (natural protein, Separates on gel filtration into a pentamer and a monomer fraction; A seleno-methionine form (E. coli B834(DE3)) was used for phasing only; also called full-length FlgD; source: E. coli BL21(DE3)pLysS, purified (Q-Sepharose, Butyl-Sepharose, Superdex 200)) MSIAVNMNDPTNTGVKTTTGSGSMTGSNAADLQSSFLTLLVAQLKNQDPTNPLQNNELTTQLAQISTVSGIEKLNTTLGAISGQIDNSQSLQATTLIGHGVMVPGTTILAGKGAEEGAVTSTTPFGVELQQPADKVTATITDKDGRVVRTLEIGELRAGVHTFTWDGKQTDGTTVPNGSYNIAITASNGGTQLVAQPLQFALVQGVTKGSNGNLLDLGTYGTTTLDEVRQII",stoichiometry N,5 and 10
